Results taken from US20100243450.
pKd: −log10 of the molar value.

Molecular target: Mef2c (UniProt Q06413)
Settings: NECEEM; 25 mM tetraborate pH 9.4, room temperature; koff 0.022 s-1, kon 45 M-1 s-1

Sequence of Mef2c (Q06413 whole entry): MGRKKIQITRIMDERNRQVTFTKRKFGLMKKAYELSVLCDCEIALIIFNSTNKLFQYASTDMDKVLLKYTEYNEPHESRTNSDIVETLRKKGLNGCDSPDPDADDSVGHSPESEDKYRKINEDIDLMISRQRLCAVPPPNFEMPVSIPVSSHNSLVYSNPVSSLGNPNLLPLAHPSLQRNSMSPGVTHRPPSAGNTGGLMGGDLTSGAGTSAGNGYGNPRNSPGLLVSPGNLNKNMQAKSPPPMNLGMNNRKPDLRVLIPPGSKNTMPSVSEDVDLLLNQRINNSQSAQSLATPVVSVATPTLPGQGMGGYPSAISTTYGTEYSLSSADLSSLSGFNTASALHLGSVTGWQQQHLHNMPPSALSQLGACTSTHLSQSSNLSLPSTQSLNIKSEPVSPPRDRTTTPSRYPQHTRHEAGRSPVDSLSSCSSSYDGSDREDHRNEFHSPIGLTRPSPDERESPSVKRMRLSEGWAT

Question: How did the pKd turn out when “CCTGCCACGCTCCGCTCTAAAAATAA (double strand) [Mef2c target dsDNA 26 bp]” was run?
Answer: 3.32
